Measured values from PMC9482650, “Quantitative fragmentomics allow affinity mapping of interactomes” (Nature Communications, 2022).
Numbering of substitutions follows the chain as printed.

Legend:
Test in all cases: holdup assay
Design in all cases: key: below the threshold = too weak to quantify, mostly under pKd 3.1 to 4
Details in all cases: plain residues with an end cap or a label only (N-terminal biotin on a linker: ado-ado)
DLG3_2, Q92796 = target: T1, DLG3_2, Q92796
T1 sequence (Q92796 221-321, limits assumed, looked up): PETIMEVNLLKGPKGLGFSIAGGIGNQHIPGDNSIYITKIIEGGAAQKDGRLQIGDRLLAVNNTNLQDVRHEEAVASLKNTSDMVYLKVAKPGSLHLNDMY

NHERF4_2, Q86UT5 = target: NHERF4_2, Q86UT5
Chain of NHERF4_2, Q86UT5 (Q86UT5 220-308): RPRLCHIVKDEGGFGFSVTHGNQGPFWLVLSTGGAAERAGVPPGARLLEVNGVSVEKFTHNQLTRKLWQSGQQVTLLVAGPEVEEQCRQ

PDZRN3_1, Q9UPQ7 = target: T2, PDZRN3_1, Q9UPQ7
T2 sequence (Q9UPQ7 244-349, limits assumed, looked up): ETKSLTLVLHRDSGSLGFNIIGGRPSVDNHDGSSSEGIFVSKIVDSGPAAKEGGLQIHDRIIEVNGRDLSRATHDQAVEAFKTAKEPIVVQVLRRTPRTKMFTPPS

SNTG2, Q9NY99 = target: T3, SNTG2, Q9NY99
T3 sequence (Q9NY99 68-166, limits assumed, looked up): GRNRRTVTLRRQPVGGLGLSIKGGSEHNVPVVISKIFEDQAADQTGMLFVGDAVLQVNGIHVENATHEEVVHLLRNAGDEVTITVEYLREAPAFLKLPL

MAST2, Q6P0Q8 = target: MAST2, Q6P0Q8
Chain of MAST2, Q6P0Q8 (Q6P0Q8 1099-1202): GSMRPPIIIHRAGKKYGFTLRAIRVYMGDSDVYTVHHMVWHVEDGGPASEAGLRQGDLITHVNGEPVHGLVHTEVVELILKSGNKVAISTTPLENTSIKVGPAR

DLG5_1, Q8TDM6 = target: DLG5_1, Q8TDM6
Chain of DLG5_1, Q8TDM6 (Q8TDM6 617-713): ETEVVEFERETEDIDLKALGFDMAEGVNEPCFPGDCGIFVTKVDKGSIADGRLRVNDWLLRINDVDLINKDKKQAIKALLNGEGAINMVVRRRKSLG

DLG3_1, Q92796 = target: T4, DLG3_1, Q92796
T4 sequence (Q92796 125-227, limits assumed, looked up): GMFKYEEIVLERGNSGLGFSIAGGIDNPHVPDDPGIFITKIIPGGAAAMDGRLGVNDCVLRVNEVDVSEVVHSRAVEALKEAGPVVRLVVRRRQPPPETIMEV

TJP1_2, Q07157 = target: TJP1_2, Q07157
Chain of TJP1_2, Q07157 (Q07157 181-274): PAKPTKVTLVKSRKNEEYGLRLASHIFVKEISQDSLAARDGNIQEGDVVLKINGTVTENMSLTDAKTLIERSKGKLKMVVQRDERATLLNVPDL

ARHGEF12, Q9NZN5-2 = target: ARHGEF12, Q9NZN5-2
Chain of ARHGEF12, Q9NZN5-2 (Q9NZN5 other isoform, or with tags, fused parts or gaps): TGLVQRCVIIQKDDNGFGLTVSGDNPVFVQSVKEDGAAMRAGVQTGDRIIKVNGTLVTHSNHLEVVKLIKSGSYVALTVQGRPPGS

GORASP2, Q9H8Y8 = target: GORASP2, Q9H8Y8
TIAM2, Q8IVF5 = target: T5, TIAM2, Q8IVF5
T5 sequence (Q8IVF5 885-986, limits assumed, looked up): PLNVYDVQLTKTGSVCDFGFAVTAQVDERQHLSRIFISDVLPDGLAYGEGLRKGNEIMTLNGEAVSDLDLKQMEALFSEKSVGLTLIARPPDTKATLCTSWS

TX1BP3, O14907 = target: T6, TX1BP3, O14907
T6 sequence (O14907 10-122, limits assumed, looked up): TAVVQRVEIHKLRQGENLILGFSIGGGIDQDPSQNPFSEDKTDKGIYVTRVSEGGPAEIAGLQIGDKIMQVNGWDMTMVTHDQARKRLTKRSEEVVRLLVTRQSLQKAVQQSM

Inadl_1, Q8NI35 = target: Inadl_1, Q8NI35
Chain of Inadl_1, Q8NI35 (Q8NI35 113-229): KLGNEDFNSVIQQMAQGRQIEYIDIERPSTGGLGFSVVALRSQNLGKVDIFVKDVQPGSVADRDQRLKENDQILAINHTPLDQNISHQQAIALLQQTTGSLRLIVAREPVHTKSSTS

GRID2IP_2, A4D2P6 = target: GRID2IP_2, A4D2P6
Chain of GRID2IP_2, A4D2P6 (A4D2P6 272-370): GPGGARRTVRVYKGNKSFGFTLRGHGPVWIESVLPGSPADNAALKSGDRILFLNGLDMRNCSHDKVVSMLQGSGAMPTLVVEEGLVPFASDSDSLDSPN

LIN7A, O14910 = target: T7, LIN7A, O14910
T7 sequence (O14910 103-200, limits assumed, looked up): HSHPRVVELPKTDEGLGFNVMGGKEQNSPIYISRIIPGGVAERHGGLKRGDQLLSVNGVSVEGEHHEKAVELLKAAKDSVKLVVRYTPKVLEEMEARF

SNTG1, Q9NSN8 = target: T8, SNTG1, Q9NSN8
T8 sequence (Q9NSN8 52-150, limits assumed, looked up): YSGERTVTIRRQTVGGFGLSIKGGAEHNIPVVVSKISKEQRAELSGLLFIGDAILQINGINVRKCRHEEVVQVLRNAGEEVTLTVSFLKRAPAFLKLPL

RADIL, Q96JH8 = target: T9, RADIL, Q96JH8
T9 sequence (Q96JH8 971-1071, limits assumed, looked up): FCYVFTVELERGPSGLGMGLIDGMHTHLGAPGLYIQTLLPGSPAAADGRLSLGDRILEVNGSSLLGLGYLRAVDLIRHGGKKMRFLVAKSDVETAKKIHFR

SNTA1, Q13424 = target: T10, SNTA1, Q13424
T10 sequence (Q13424 82-180, limits assumed, looked up): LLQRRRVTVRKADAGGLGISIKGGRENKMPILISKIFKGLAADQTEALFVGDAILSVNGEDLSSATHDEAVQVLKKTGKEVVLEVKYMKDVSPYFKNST

PICK1, Q9NRD5 = target: PICK1, Q9NRD5
Chain of PICK1, Q9NRD5 (Q9NRD5 17-115): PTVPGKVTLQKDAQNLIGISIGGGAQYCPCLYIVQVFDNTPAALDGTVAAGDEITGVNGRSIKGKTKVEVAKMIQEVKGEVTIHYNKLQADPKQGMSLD

CASK, O14936 = target: CASK, O14936
Chain of CASK, O14936 (O14936 487-570): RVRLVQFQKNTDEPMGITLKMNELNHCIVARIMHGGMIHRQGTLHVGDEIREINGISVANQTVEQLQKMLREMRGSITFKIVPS

MAGI1_1, Q96QZ7 = target: MAGI1_1, Q96QZ7
Chain of MAGI1_1, Q96QZ7 (Q96QZ7 1-106): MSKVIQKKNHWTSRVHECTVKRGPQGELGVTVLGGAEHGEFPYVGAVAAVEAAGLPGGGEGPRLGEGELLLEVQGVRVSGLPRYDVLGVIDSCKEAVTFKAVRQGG

APBA2_1, Q99767 = target: T11, APBA2_1, Q99767
T11 sequence (Q99767 563-664, limits assumed, looked up): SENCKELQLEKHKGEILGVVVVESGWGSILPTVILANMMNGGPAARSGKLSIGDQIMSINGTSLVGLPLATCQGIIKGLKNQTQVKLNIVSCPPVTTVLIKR

LIN7B, Q9HAP6 = target: T12, LIN7B, Q9HAP6
T12 sequence (Q9HAP6 88-185, limits assumed, looked up): T7 sequence (O14910 103-200, limits assumed, looked up) with S2A, V20I, I35V, E42D, H65Q, K77Q, D78G, K89R

FRMPD4, Q14CM0 = target: FRMPD4, Q14CM0
Chain of FRMPD4, Q14CM0 (Q14CM0 67-160): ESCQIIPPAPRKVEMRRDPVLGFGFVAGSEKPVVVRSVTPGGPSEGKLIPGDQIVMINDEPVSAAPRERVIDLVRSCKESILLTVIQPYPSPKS

B1: ADGRA3, Q8IWK6 (peptide)
chain: TGLWKHETTV
- pKd (DLG3_2, Q92796): 5.25
- pKd (NHERF4_2, Q86UT5): below the threshold
- pKd (PDZRN3_1, Q9UPQ7): 4.25
- pKd (SNTG2, Q9NY99): 4.25
- pKd (MAST2, Q6P0Q8): 5.47
- pKd (DLG5_1, Q8TDM6): below the threshold
- pKd (DLG3_1, Q92796): 4.69
- pKd (TJP1_2, Q07157): below the threshold
- pKd (ARHGEF12, Q9NZN5-2): 4.06
- pKd (GORASP2, Q9H8Y8): 3.98
- pKd (TIAM2, Q8IVF5): below the threshold
- pKd (TX1BP3, O14907): 5.08
- pKd (Inadl_1, Q8NI35): below the threshold
- pKd (GRID2IP_2, A4D2P6): below the threshold
- pKd (LIN7A, O14910): 4.19
- pKd (SNTG1, Q9NSN8): 4.46
- pKd (RADIL, Q96JH8): 4.43
- pKd (SNTA1, Q13424): 4.58
- pKd (PICK1, Q9NRD5): 4.16
- pKd (CASK, O14936): below the threshold
- pKd (MAGI1_1, Q96QZ7): below the threshold
- pKd (APBA2_1, Q99767): below the threshold
- pKd (LIN7B, Q9HAP6): 4.04
- pKd (FRMPD4, Q14CM0): below the threshold

B2: JUP, P14923 (peptide)
chain: PYPTADHMLA
- pKd (DLG3_2, Q92796): 4.05
- pKd (NHERF4_2, Q86UT5): below the threshold
- pKd (PDZRN3_1, Q9UPQ7): below the threshold
- pKd (SNTG2, Q9NY99): below the threshold
- pKd (MAST2, Q6P0Q8): below the threshold
- pKd (DLG5_1, Q8TDM6): below the threshold
- pKd (DLG3_1, Q92796): below the threshold
- pKd (TJP1_2, Q07157): below the threshold
- pKd (ARHGEF12, Q9NZN5-2): below the threshold
- pKd (GORASP2, Q9H8Y8): below the threshold
- pKd (TIAM2, Q8IVF5): 3.92
- pKd (TX1BP3, O14907): 4.01
- pKd (Inadl_1, Q8NI35): below the threshold
- pKd (GRID2IP_2, A4D2P6): below the threshold
- pKd (LIN7A, O14910): below the threshold
- pKd (SNTG1, Q9NSN8): below the threshold
- pKd (RADIL, Q96JH8): below the threshold
- pKd (SNTA1, Q13424): below the threshold
- pKd (PICK1, Q9NRD5): below the threshold
- pKd (CASK, O14936): below the threshold
- pKd (MAGI1_1, Q96QZ7): below the threshold
- pKd (APBA2_1, Q99767): below the threshold
- pKd (LIN7B, Q9HAP6): 3.6
- pKd (FRMPD4, Q14CM0): below the threshold

B3: SDC2, P34741 (peptide)
chain: QKAPTKEFYA
- pKd (DLG3_2, Q92796): 4.18
- pKd (NHERF4_2, Q86UT5): below the threshold
- pKd (PDZRN3_1, Q9UPQ7): below the threshold
- pKd (SNTG2, Q9NY99): below the threshold
- pKd (MAST2, Q6P0Q8): 3.82
- pKd (DLG5_1, Q8TDM6): below the threshold
- pKd (DLG3_1, Q92796): below the threshold
- pKd (TJP1_2, Q07157): below the threshold
- pKd (ARHGEF12, Q9NZN5-2): below the threshold
- pKd (GORASP2, Q9H8Y8): 3.93
- pKd (TIAM2, Q8IVF5): 4.34
- pKd (TX1BP3, O14907): below the threshold
- pKd (Inadl_1, Q8NI35): below the threshold
- pKd (GRID2IP_2, A4D2P6): below the threshold
- pKd (LIN7A, O14910): below the threshold
- pKd (SNTG1, Q9NSN8): below the threshold
- pKd (RADIL, Q96JH8): 3.51
- pKd (SNTA1, Q13424): below the threshold
- pKd (PICK1, Q9NRD5): below the threshold
- pKd (CASK, O14936): below the threshold
- pKd (MAGI1_1, Q96QZ7): below the threshold
- pKd (APBA2_1, Q99767): below the threshold
- pKd (LIN7B, Q9HAP6): 3.53
- pKd (FRMPD4, Q14CM0): 3.7

B4: PLXNB1, O43157 (peptide)
chain: AAVENKVTDL
- pKd (DLG3_2, Q92796): 3.72
- pKd (NHERF4_2, Q86UT5): below the threshold
- pKd (PDZRN3_1, Q9UPQ7): below the threshold
- pKd (SNTG2, Q9NY99): 3.98
- pKd (MAST2, Q6P0Q8): 5.61
- pKd (DLG5_1, Q8TDM6): below the threshold
- pKd (DLG3_1, Q92796): below the threshold
- pKd (TJP1_2, Q07157): below the threshold
- pKd (ARHGEF12, Q9NZN5-2): 5.5
- pKd (GORASP2, Q9H8Y8): 3.9
- pKd (TIAM2, Q8IVF5): below the threshold
- pKd (TX1BP3, O14907): 4.77
- pKd (Inadl_1, Q8NI35): below the threshold
- pKd (GRID2IP_2, A4D2P6): 4.56
- pKd (LIN7A, O14910): below the threshold
- pKd (SNTG1, Q9NSN8): 3.74
- pKd (RADIL, Q96JH8): below the threshold
- pKd (SNTA1, Q13424): 4.33
- pKd (PICK1, Q9NRD5): below the threshold
- pKd (CASK, O14936): below the threshold
- pKd (MAGI1_1, Q96QZ7): below the threshold
- pKd (APBA2_1, Q99767): below the threshold
- pKd (LIN7B, Q9HAP6): below the threshold
- pKd (FRMPD4, Q14CM0): 3.68
